The supplement of paper PMC10065799, “High-throughput profiling of sequence recognition by tyrosine kinases and SH2 domains using bacterial peptide display” (eLife, 2023)

What was measured:
Grb2 SH2 = Grb2 SH2 (UniProt P62993); assay: SH2 binding enrichment of the phosphorylated peptide, bacterial display (enrichment ratio); higher = better substrate or ligand; peptides without Tyr show the background
SHP2-C SH2 = assay: as above
c-Src SH2 = assay: as above
FGFR1 = FGFR1 (UniProt P11362); assay: phosphorylation enrichment, bacterial display (enrichment ratio); higher = better substrate or ligand; peptides without Tyr show the background
Sequence of FGFR1 (P11362 whole entry, looked up): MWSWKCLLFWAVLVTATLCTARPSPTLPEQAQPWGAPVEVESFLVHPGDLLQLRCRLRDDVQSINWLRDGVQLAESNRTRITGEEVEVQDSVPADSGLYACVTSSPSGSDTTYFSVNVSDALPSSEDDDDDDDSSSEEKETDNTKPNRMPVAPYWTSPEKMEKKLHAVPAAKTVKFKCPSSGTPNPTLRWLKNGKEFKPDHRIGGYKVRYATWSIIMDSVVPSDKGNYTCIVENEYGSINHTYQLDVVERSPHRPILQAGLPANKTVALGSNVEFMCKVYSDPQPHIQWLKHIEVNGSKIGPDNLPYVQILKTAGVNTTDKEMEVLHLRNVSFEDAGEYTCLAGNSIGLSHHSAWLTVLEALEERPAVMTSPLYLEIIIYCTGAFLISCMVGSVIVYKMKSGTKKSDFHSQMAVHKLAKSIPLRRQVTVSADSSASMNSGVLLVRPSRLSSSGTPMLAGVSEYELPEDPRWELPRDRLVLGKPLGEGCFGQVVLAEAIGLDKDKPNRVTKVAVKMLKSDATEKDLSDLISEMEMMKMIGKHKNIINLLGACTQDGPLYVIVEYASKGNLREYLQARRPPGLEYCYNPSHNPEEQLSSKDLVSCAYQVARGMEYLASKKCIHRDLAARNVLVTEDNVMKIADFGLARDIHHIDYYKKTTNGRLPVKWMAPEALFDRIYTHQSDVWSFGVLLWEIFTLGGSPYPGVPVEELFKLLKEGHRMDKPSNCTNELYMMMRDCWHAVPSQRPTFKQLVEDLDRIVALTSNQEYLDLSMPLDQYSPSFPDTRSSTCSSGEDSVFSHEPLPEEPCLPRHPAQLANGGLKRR

Fyn = Fyn (UniProt P06241); assay: as above
MERTK = MERTK (UniProt Q12866); assay: as above
Sequence of MERTK (Q12866 whole entry, looked up): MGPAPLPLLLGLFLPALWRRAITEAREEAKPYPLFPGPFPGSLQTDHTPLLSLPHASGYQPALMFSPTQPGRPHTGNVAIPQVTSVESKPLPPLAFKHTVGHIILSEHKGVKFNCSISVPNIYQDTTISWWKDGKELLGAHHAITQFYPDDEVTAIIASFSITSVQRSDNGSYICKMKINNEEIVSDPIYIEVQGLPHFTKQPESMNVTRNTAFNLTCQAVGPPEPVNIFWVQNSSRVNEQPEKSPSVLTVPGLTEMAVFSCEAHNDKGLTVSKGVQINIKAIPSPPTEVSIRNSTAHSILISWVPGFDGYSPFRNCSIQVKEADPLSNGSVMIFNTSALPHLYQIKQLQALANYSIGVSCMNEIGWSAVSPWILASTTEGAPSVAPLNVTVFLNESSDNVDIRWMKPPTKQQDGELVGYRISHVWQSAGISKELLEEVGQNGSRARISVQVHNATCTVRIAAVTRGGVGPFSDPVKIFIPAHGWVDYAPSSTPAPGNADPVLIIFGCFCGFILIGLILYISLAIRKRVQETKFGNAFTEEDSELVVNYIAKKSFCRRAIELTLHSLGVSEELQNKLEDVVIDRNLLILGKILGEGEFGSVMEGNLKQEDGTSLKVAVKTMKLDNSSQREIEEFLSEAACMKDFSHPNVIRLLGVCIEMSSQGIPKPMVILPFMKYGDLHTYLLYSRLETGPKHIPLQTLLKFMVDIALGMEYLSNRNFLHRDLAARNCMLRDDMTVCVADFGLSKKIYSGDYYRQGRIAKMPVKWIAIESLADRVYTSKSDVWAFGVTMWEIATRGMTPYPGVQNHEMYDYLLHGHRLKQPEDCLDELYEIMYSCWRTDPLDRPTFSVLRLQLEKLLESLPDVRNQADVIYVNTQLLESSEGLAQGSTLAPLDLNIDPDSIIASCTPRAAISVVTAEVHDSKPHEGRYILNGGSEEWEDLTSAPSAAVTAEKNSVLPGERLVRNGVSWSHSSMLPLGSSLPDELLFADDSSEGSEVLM

EPHB2 = EPHB2 (UniProt P29323); assay: as above
FGFR3 = FGFR3 (UniProt P22607); assay: as above
Sequence of FGFR3 (P22607 whole entry, looked up): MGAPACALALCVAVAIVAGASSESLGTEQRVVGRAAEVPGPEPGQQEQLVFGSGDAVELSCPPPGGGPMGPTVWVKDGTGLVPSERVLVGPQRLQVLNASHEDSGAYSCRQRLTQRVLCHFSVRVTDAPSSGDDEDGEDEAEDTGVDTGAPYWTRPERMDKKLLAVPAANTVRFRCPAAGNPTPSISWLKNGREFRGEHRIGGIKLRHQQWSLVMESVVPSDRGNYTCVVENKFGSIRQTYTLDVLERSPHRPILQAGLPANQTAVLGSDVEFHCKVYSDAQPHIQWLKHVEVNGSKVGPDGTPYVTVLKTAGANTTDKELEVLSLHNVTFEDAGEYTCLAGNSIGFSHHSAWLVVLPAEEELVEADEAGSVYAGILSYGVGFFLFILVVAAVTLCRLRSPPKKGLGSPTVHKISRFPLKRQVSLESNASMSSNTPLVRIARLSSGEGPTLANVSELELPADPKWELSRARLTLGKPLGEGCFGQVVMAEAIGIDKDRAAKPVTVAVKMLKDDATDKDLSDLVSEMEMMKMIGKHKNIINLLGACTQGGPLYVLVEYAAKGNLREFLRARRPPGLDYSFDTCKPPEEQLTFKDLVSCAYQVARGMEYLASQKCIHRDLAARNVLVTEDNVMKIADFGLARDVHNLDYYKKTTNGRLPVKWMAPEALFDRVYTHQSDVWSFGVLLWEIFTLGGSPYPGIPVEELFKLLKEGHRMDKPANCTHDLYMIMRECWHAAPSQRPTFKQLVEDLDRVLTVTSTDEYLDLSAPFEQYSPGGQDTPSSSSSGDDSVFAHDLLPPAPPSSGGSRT

EPHB1 = EPHB1 (UniProt P54762); assay: as above
Sequence of EPHB1 (P54762 whole entry, looked up): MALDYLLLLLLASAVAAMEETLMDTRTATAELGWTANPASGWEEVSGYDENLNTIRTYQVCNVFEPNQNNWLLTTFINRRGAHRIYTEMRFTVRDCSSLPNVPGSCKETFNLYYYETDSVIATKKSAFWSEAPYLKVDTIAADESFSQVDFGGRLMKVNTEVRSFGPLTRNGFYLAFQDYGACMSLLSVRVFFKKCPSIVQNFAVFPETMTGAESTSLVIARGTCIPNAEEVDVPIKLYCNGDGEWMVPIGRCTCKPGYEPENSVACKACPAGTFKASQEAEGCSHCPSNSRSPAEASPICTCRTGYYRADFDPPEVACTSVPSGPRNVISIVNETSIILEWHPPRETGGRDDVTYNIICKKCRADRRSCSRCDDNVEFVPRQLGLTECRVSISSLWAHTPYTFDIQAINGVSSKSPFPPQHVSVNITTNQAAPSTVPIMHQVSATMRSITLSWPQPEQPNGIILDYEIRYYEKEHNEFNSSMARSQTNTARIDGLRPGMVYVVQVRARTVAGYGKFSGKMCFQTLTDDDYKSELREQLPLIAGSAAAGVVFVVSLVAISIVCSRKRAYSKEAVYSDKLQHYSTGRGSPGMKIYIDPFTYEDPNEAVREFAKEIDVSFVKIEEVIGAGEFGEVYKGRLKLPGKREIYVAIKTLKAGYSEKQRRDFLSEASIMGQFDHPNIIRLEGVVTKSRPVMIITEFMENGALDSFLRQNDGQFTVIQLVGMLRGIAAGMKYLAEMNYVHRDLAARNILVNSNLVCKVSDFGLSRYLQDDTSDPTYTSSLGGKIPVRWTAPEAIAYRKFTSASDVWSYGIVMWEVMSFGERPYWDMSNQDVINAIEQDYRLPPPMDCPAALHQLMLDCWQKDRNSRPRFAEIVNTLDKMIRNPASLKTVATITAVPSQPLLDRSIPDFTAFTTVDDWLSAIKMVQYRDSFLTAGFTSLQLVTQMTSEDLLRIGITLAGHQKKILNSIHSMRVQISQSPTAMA

Hck = Hck (UniProt P08631); assay: as above
Sequence of Hck (P08631 whole entry, looked up): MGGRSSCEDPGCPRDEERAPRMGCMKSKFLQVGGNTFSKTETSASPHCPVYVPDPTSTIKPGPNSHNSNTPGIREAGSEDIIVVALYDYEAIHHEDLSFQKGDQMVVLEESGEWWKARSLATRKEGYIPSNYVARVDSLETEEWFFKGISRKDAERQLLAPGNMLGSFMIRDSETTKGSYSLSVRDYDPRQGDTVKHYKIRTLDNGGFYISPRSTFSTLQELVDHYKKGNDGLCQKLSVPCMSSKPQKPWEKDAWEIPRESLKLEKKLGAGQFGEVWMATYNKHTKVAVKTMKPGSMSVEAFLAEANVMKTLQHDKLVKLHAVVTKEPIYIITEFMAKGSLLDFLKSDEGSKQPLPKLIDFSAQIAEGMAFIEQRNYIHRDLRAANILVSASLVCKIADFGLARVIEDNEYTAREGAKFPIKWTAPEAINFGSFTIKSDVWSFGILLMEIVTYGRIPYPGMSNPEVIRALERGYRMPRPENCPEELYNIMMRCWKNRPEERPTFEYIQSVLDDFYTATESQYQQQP

Fer (mouse) = assay: as above
AncSZ = assay: as above
c-Abl (mouse) = assay: as above
Jak2 = Jak2 (UniProt O60674); assay: as above
c-Src = assay: as above
Fes = Fes (UniProt P07332); assay: as above
Sequence of Fes (P07332 whole entry, looked up, the tested form may be a part): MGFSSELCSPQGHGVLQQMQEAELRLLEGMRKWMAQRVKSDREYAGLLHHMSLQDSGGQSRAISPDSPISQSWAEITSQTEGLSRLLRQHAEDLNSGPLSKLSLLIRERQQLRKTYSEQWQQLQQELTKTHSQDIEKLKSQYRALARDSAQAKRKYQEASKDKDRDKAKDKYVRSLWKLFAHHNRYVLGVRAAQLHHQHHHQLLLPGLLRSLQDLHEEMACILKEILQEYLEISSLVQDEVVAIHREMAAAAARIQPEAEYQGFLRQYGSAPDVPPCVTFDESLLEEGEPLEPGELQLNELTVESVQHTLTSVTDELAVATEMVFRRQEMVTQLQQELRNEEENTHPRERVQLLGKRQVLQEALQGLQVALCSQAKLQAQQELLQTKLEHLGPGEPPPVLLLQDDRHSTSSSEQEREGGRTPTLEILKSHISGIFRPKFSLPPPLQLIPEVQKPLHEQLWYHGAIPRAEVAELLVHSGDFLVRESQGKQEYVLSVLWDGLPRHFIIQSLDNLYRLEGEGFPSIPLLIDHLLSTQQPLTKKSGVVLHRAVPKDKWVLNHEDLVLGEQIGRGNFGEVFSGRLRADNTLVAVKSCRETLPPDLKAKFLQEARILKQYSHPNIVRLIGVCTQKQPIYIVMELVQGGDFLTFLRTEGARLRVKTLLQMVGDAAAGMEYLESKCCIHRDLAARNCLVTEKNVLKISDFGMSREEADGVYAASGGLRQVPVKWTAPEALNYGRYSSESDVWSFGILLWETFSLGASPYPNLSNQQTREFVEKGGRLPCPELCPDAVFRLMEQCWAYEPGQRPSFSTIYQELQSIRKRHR
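Wherever SH2 binding enrichment of the phosphorylated peptide, bacterial display is given: peptide library displayed on the E. coli surface as eCPX fusions, selected cells deep-sequenced, score is each peptide's frequency after selection divided by its frequency in the input.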
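Wherever phosphorylation enrichment, bacterial display is given: 11-residue human phosphosite peptides and single-mutation variants displayed on the E. coli surface, counted by deep sequencing, each peptide's frequency after selection divided by its frequency in the unselected input library; frequency after pTyr selection over input frequency; kinase dosed for 20-30% of maximal phosphorylation in three min.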

| Sequence | SH2 binding enrichment (Grb2 SH2) | SH2 binding enrichment (SHP2-C SH2) | SH2 binding enrichment (c-Src SH2) | phosphorylation enrichment (FGFR1) | phosphorylation enrichment (Fyn) | phosphorylation enrichment (MERTK) | phosphorylation enrichment (EPHB2) | phosphorylation enrichment (FGFR3) | phosphorylation enrichment (EPHB1) | phosphorylation enrichment (Hck) | phosphorylation enrichment (Fer (mouse)) | phosphorylation enrichment (AncSZ) | phosphorylation enrichment (c-Abl (mouse)) | phosphorylation enrichment (Jak2) | phosphorylation enrichment (c-Src) | phosphorylation enrichment (Fes) |
| --- | --- | --- | --- | --- | --- | --- | --- | --- | --- | --- | --- | --- | --- | --- | --- | --- |
| SHEELYKWFTS [DYNC1H1_Y3051] | 0.887 | 0.837 | 0.562 | 5.57 | 0.918 | 4.28 | 0.577 | 3.6 | 0.608 | 1.25 | 3.4 | 1.28 | 1.33 | 1.05 | 1.55 | 1.21 |
| SEPDLYCDPRG [PKP1_Y160] | 1.03 | 0.93 | 0.563 | 1.94 | 1.95 | 1.46 | 3.01 | 1.45 | 4.34 | 5.26 | 2.37 | 2.48 | 1.31 | 1.23 | 2.17 | 1.15 |
| KRISCYEARFQ [PFKFB3_Y194_S197R_YF] | 0.999 | 0.941 | 0.64 | 0.344 | 0.382 | 0.395 | 0.476 | 0.496 | 0.398 | 0.425 | 0.399 | 0.669 | 0.728 | 0.647 | 0.497 | 0.845 |
| GISDEYHVIWH [GCDH_Y398_R402W] | 0.789 | 0.521 | 0.568 | 7.06 | 0.837 | 0.391 | 1.1 | 4.61 | 1.46 | 1 | 0.649 | 2.07 | 0.818 | 1.34 | 1.09 | 1.17 |
| ENAGFYFRISA | 0.729 | 0.566 | 0.669 | 0.467 | 0.44 | 0.36 | 0.73 | 0.844 | 0.587 | 0.492 | 0.674 | 1.32 | 1 | 1.55 | 0.492 | 1.42 |
| VTPVMYTYDEY [COL10A1_Y623_G618V] | 1.05 | 0.685 | 2.44 | 0.637 | 1.61 | 0.912 | 0.798 | 0.795 | 0.633 | 0.932 | 0.542 | 1.15 | 0.568 | 0.917 | 2.22 | 1.05 |
| LSSVSYVGCSL [ADGRD1_Y571_I569V] | 0.798 | 0.691 | 0.519 | 0.949 | 1.16 | 1.05 | 1.06 | 1.04 | 0.633 | 1.01 | 0.98 | 1.2 | 1.35 | 1.23 | 1.12 | 1.46 |
| YRNKPYISWPS [CDC42BPB_Y1638_S1633Y] | 1.87 | 1.64 | 1.29 | 0.394 | 0.41 | 0.449 | 0.461 | 0.46 | 0.45 | 0.606 | 0.394 | 0.547 | 0.401 | 0.697 | 0.522 | 0.635 |
| GVYSRYFTTYD [CLCA1_Y661] | 0.944 | 1.27 | 1.06 | 0.571 | 4.58 | 3.71 | 1.25 | 0.729 | 1.12 | 3.33 | 0.573 | 1.35 | 0.955 | 1.07 | 4.77 | 1 |
| KDLPNYNWNSF [KISS1_Y112] | 0.769 | 0.441 | 0.459 | 0.432 | 0.446 | 0.491 | 0.63 | 0.521 | 0.505 | 0.416 | 0.604 | 0.904 | 0.639 | 0.767 | 0.507 | 0.855 |
| RMLREYQELMS [KRT74_Y425] | 1.13 | 0.962 | 5.24 | 0.95 | 0.699 | 0.527 | 0.432 | 0.555 | 0.66 | 0.532 | 0.357 | 0.821 | 0.663 | 0.611 | 0.57 | 0.837 |

Now from value to sequence, other results behind:

| SH2 binding enrichment (Grb2 SH2) | SH2 binding enrichment (SHP2-C SH2) | SH2 binding enrichment (c-Src SH2) | Sequence | phosphorylation enrichment (FGFR1) | phosphorylation enrichment (Fyn) | phosphorylation enrichment (MERTK) | phosphorylation enrichment (EPHB2) | phosphorylation enrichment (FGFR3) | phosphorylation enrichment (EPHB1) | phosphorylation enrichment (Hck) | phosphorylation enrichment (Fer (mouse)) | phosphorylation enrichment (AncSZ) | phosphorylation enrichment (c-Abl (mouse)) | phosphorylation enrichment (Jak2) | phosphorylation enrichment (c-Src) | phosphorylation enrichment (Fes) |
| --- | --- | --- | --- | --- | --- | --- | --- | --- | --- | --- | --- | --- | --- | --- | --- | --- |
| 0.838 | 0.831 | 0.412 | KPLMPYMRFSR [SMARCE1_Y73_YF] | 0.466 | 0.591 | 0.479 | 0.464 | 0.547 | 0.385 | 0.493 | 0.352 | 1.3 | 0.99 | 0.843 | 0.508 | 0.872 |
| 1.16 | 0.762 | 0.542 | LVMFTYAIFGM [SCN1A_Y1684_I1683T] | 0.728 | 2.15 | 0.937 | 1.43 | 1.73 | 1.78 | 1.48 | 1.08 | 2.09 | 1.82 | 2.23 | 2.9 | 2.16 |
| 1.56 | 1.12 | 0.838 | HITQVYGFFDE [PPP2CA_Y127_Q122H_YF] | 1.32 | 15.7 | 2.8 | 1.11 | 1.16 | 1.09 | 7.13 | 0.823 | 2.03 | 1.69 | 1.95 | 12.7 | 2.38 |
| 0.909 | 0.791 | 0.73 | VPLATYMQIYK [RPL21_Y30_R32Q] | 0.448 | 0.975 | 0.541 | 0.737 | 0.53 | 1.98 | 2.01 | 0.315 | 0.749 | 0.565 | 0.51 | 1.16 | 0.636 |
| 0.639 | 0.551 | 0.469 | SVTCTYSPTLN [TP53_Y126_A129T] | 0.606 | 0.566 | 0.503 | 0.682 | 0.912 | 0.92 | 0.625 | 0.667 | 1.48 | 0.926 | 1.4 | 0.58 | 1.58 |
